Laboratory results as given in article PMC12442371.

Target: IbcK (isobutylene catabolism gene K product), epoxide hydrolase from Mycolicibacterium sp. ELW1 (Mycolicibacterium sp. ELW1)
Experiment: SEC; Biosep-SEC S3000 column on UPLC, 10 mM Tris-HCl pH 7, 150 mM NaCl, 0.3 mL/min, 10 µL injected; two peaks, dimer to monomers

- stoichiometry N: 2
Substance: IbcK (isobutylene catabolism gene K product), epoxide hydrolase from Mycolicibacterium sp. ELW1 (enzyme)
